Measured values published in paper PMC3325211, “Mutations in MITF and PAX3 Cause “Splashed White” and Other White Spotting Phenotypes in Horses”.

Target: MITF wild-type (DNA-binding fragment) (UniProt Q95MD1 112-207)
Experiment: EMSA; 5 mM MgCl2; 20 mM Tris, 50 mM NaCl, 5 mM MgCl2, 1 mM DTT, 33 ug/ml BSA, pH 7.4, on ice 30 min; 6% native PAGE in 0.5x TBE
Conditions: protein: recombinant; (Ni-NTA purified); chain copies: 2; label: radioactive label

Sequence of MITF wild-type (DNA-binding fragment) (Q95MD1 entry or part of it): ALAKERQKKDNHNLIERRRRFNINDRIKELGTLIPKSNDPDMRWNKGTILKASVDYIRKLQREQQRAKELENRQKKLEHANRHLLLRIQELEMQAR

B1: M-box oligonucleotide (dsDNA)
DNA 1: GGAAAGTTAGTCATGTGCTTTTCAGAAGA
DNA 2: TCTTCTGAAAAGCACATGACTAACTTTCC
B1: binds.
